Test results reported in the supplement of paper PMC7125110.
± gives the standard error. This sample holds only a part of the variants without activity.

B1: glmS ribozyme (parent)
chain: AUAAAAGCGCCAGAACUACAGAAAUGUAGUUGACGAGGAGGAGGUUUAUCGAAUUUUCGGCGGAUGCCUCCAAA

Experiments:
Settings in all cases: with glucosamine-6-phosphate
glucosamine-6-phosphate [1] = variants of: B1; assay: self-cleavage kobs at 40 uM GlcN6P; higher = faster cleavage; RNA array
Method in brief: (§1)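 The measurements used barcoded ribozyme variants on sequenced MiSeq chips, transcribed in situ by E. coli RNA polymerase and tracked at 37 °C with a hybridised Cy3 probe. Glucosamine-6-phosphate, 40 μM to 10 mM in HEPES/KCl/Mg(OAc)2 buffer, was flowed in while tiles were imaged over ~14 h. Baseline-normalised signals, also normalised to non-cleaving reference variants, gave per-tile medians that were fit to one- or two-exponential decays for kobs. kcat and KM resulted from weighted Michaelis–Menten fits across concentrations.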

glucosamine-6-phosphate [2] = variants of: B1; assay: self-cleavage kobs at 10000 uM GlcN6P; higher = faster cleavage; RNA array
Method in brief: as §1

glucosamine-6-phosphate [3] = variants of: B1; assay: self-cleavage kobs at 640 uM GlcN6P; higher = faster cleavage; RNA array
Method in brief: as §1

glucosamine-6-phosphate [4] = variants of: B1; assay: self-cleavage kobs at 160 uM GlcN6P; higher = faster cleavage; RNA array
Method in brief: as §1

glucosamine-6-phosphate [5] = variants of: B1; assay: self-cleavage kobs at 2500 uM GlcN6P; higher = faster cleavage; RNA array
Method in brief: as §1

Variant	self-cleavage kobs at 40 uM GlcN6P (glucosamine-6-phosphate [1]) [s⁻¹]	self-cleavage kobs at 10000 uM GlcN6P (glucosamine-6-phosphate [2]) [s⁻¹]	self-cleavage kobs at 640 uM GlcN6P (glucosamine-6-phosphate [3]) [s⁻¹]	self-cleavage kobs at 160 uM GlcN6P (glucosamine-6-phosphate [4]) [s⁻¹]	self-cleavage kobs at 2500 uM GlcN6P (glucosamine-6-phosphate [5]) [s⁻¹]
A14G U46G C67A	0.000265 ± 6.3e-05	0.00474 ± 0.0012			
C10G G43C U46A G60A G62C	< 1e-05				
C11A G41A C50G G59U	< 1e-05	< 1e-05			
G51A A52C A53G	< 1e-05				
U55C C61U	< 1e-05				
C8G G32C G62U	< 1e-05	< 1e-05			
A6U G7A G44U A52U U55C A64U	< 1e-05	< 1e-05	< 1e-05		
A14U U46G G63A U65A C70G C71G	4.47e-05 ± 2e-05				
A14U C34G A42U U45C A53C	< 1e-05	< 1e-05			
G7A C67U	< 1e-05		< 1e-05	< 1e-05	
G43C	< 1e-05		< 1e-05	< 1e-05	< 1e-05
C8G C10G C11U A33G U47C C70A C71A	< 1e-05				
C8G G29U	< 1e-05	< 1e-05	< 1e-05	< 1e-05	< 1e-05
G7C A48U C70G	< 1e-05	< 1e-05			
C34A G62A	< 1e-05	< 1e-05	< 1e-05	< 1e-05	< 1e-05
C8A U49A G51A	< 1e-05	< 1e-05			
C8G C10A G60U	< 1e-05	< 1e-05			
G51A G62C C67A	< 1e-05	< 1e-05			
U54G C67U	0.000313 ± 5.9e-05		0.00333 ± 0.00057	0.000612 ± 0.00014	0.00208 ± 0.00059
A18C	0.00108 ± 0.0003		0.0169 ± 0.0041	0.00647 ± 0.0023	
C34U U57C C58U	< 1e-05	< 1e-05			< 1e-05
A12U C50G G51C	< 1e-05				
G13A G59U	< 1e-05				
G7U G29C C61U	< 1e-05				
C10U A15G G40U	< 1e-05	< 1e-05			
C8U C11G C50U U56C U69G	4.97e-05 ± 2.2e-05				
A53C U57C	< 1e-05	4.63e-05 ± 1.2e-05			4.1e-05 ± 1.6e-05
C8G G43U	< 1e-05		< 1e-05		< 1e-05
